From patent CN114106184A

Legend:
[1] = molecular target: CA125抗原 (Cancer Antigen 125) (human) (UniProt Q8WXI7); assay: SPR, Biacore, comparator nanobody listed in Table 1
[2] = molecular target: CA125抗原 (Cancer Antigen 125) (human) (UniProt Q8WXI7); assay: SPR, Biacore T100, antigen on chip, 1:1 fit (repeats Table 1)
[3] = molecular target: CA125抗原 (Cancer Antigen 125) (human) (UniProt Q8WXI7); assay: SPR, Biacore T100, antigen coupled to chip, nanobody as analyte, 1:1 fit
[4] = molecular target: CA125抗原 (Cancer Antigen 125) (human) (UniProt Q8WXI7); assay: SPR, Biacore T100, antigen coupled to chip, bispecific as analyte, 1:1 fit

B1: VHH-CA125-4C1 (VHH, from another filing)
VHH: ESGGGLVQAGGSLRLSCAASGNTFNINAMGWYRQAPGKQRELVATITSGGSTNYADSVKGRFTISRDNAKNTVFLQMNSLKPEDTAVYYCNAVQTRLPNSPDRYEYDYWGQGT
Kd [1]: 0.635 nM

B2: 抗CA125纳米抗体4A4 (VHH)
VHH: QVQLQESGGGLVQAGTSLTLSCAASERTFSAYDMNWYRQAPGKERELVAAISWRGPITYVADSVKGRFTISRDNAKNTVYLQMNSLKPEDTAIYYCNAEPGPGYVGSYALSYWGQGTQVTVSS
Kd [2]: 3.59 nM
Kd [3]: 3.59 nM

B3: VHH-CA125-2H7 (VHH, from another filing)
VHH: ESGGGLVQAGGSLRLSCERSDAPHSPYTMGWFRQAPGKDREFVATITWSGGTTLYADSVKGRFTISRGIAKNTAYLQMNTLKPEDTAVYYCAVGLGGGAYREDHQYDYWGQGT
Kd [1]: 0.718 nM

B4: VHH-CA125-4H10 (VHH, from another filing)
VHH: ESGGGLVQPGGSLRLSCAASEFTLEHYAIGWFRQAPGKEREGVGCISSSQENTYVEDSAKGRFTISRDNVKNTVYLQMNSLKPEDTAVYYCAARRFGLCVISPGYFEVWGQGT
Kd [1]: 0.285 nM

B5: 抗CA125双特异性纳米抗体 4A4-(G4S)4-6C1 (bispecific antibody)
chain: QVQLQESGGGLVQAGTSLTLSCAASERTFSAYDMNWYRQAPGKERELVAAISWRGPITYVADSVKGRFTISRDNAKNTVYLQMNSLKPEDTAIYYCNAEPGPGYVGSYALSYWGQGTQVTVSSGGGGSGGGGSGGGGSGGGGSQVQLQESGGGLVQAGGSLRLSCAASGSMFSINAMRWYRQAPGKQRELVAAITSGGSTNYADSVKGRFTISRDNAKNTMYLQMNSLKPEDTAVYYCNAAQTRLPNSADRYEYDYWGQGTQVTVSS
Kd [4]: 0.0768 nM

B6: 抗CA125纳米抗体6C1 (VHH)
VHH: QVQLQESGGGLVQAGGSLRLSCAASGSMFSINAMRWYRQAPGKQRELVAAITSGGSTNYADSVKGRFTISRDNAKNTMYLQMNSLKPEDTAVYYCNAAQTRLPNSADRYEYDYWGQGTQVTVSS
Kd [2]: 0.198 nM
Kd [3]: 0.198 nM
